± gives the standard deviation of the averaged measurements. Where only a bound is given, the exact number is not on record here.

This data set relates to VchCAST RNA-guided transposition machinery (E. coli BL21(DE3) host, lacZ target). The data set can be described thus: relative integration efficiency (T-LR orientation) vs wild-type transposon end (log2 (normalized fold change)); transposon end mutated: right end (5 bp flank + 75 bp right end); higher = more efficient transposition. An outline of the steps:
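Relative integration efficiency is a fold change of output over input barcode abundance, normalised to reference barcodes and log-transformed. Input plasmids and genomic integration junctions were PCR-amplified and Illumina-sequenced from E. coli BL21(DE3) co-transformed with a T7-driven effector plasmid and pUC57 donor pools of 1549 left-end or 1849 right-end transposon variants. Plating was done with 0.1 mM IPTG at 37°C for 18 h, with two biological output replicates and four reference barcodes.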
Turning to “ACATTTGTTGATACAACCATAAAATCATCATTACACCCATCAATTGATAATTATCACACCCCATTTAACTATAACGCTCTGATCATAGTCAGACCAACATTGCTACGACCCGTATTCGCACCGACAC”, the “relative integration efficiency (log2)” value is -1.24 ± 0.14.

As for “ACATTTGTTGATACAACCATAAAATGATAATTACACCCATAAATTGATAATTATCACACCCATAAATTGATATTGCCTCTGATCATAGTCAGACCAACATTTGTGAGCGGATAACAAGCACCGACAC”, the “relative integration efficiency (log2)” value was -0.684 ± 0.077.

As to “ACATTTGTTGATACAACCATAAAATGATAATTACACCCATAAATTGATAATTATCACACCCATAAATTGATATTGCCTCTGTACGATCCAGTGATCTCCAAGACGCTGCAAGAGTCCGCACCGACAC”, the “relative integration efficiency (log2)” value is -0.117 ± 0.38.

For “ACATTTGTAAAAACAACCATAAAATGATAATTACACCCATAAATTGATAATTATCACACCCATAAATTGATATTGCCTCTGATCATAGTCAGACCAACATTGCTACGACCCGTATTCGCACCGACAC”, the “relative integration efficiency (log2)” value is -0.286 ± 0.49.

On to “ACATTTGTTGATACACCCATAAATTGATAATTACAACCATAAAATGATAATTATCACAACCATAAAATGATAATTACTCTGATCATAGTCAGACCAACATTGCTACGACCCGTATTCGCACCGACAC”, for which the “relative integration efficiency (log2)” value is -0.939 ± 0.36.

For the sequence “ACATTTGTGGATCCAACCATAAAATGATAATTACACCCATAAATTCATAATTATCACACCCAATTTAACTATAACGCTCTGATCATAGTCAGACCAACATTGCTACGACCCGTATTCGCACCGACAC”, the “relative integration efficiency (log2)” value was found to be 1.043 ± 0.0096.

With “ACATTTGTTGATACAACCATAAAATGATAATTACACCCATATTTTGATAATTATCACACCCATAAATTGATATTGCCTCTGATCATAGTCAGACCAACATTGCTACGACCCGTATTCGCACCGACAC”, the “relative integration efficiency (log2)” value was found to be 0.00197 ± 0.1.

As to “ACATTTGTTGATACAACCATAAAATGATAATTACACCCATAAAGGTCTAATTATCACACCCATAAATTGATATTGCCTCTGATCATAGTCAGACCAACATTGCTACGACCCGTATTCGCACCGACAC”, the “relative integration efficiency (log2)” value was -1.72 ± 0.31.

In the case of “ACATTTGTTGATACAACCATAAAATGATAATTACACCCATAAATTGATAAGGCGCACACCCATAAATTGATATTGCCTCTGATCATAGTCAGACCAACATTGCTACGACCCGTATTCGCACCGACAC”, the “relative integration efficiency (log2)” value is -0.0146 ± 0.0051.

Turning to “ACATTTGTTGATCCAACCATAAAATGATAATTACACCCATAAATTGATCATTATCACACCCAATTTAACTATAACGCTCTGATCATAGTCAGACCAACATTGCTACGACCCGTATTCGCACCGACAC”, the “relative integration efficiency (log2)” value turned out to be 1.98 ± 0.02.

Turning to “ACATTTGTTGATACAACCATAAAATGATCATTACCCCCATAAATTGATAATTATCCCACCCCATTTAACTATAACGCTCTGATCATAGTCAGACCAACATTGCTACGACCCGTATTCGCACCGACAC”, the “relative integration efficiency (log2)” value was 1.86 ± 0.02.

For the sequence “ACATTTGTTCATACAACCCTAAAATGATAATTACACCCATAAATGGATCATTATCACACCCAATTTAACTATAACGCTCTGATCATAGTCAGACCAACATTGCTACGACCCGTATTCGCACCGACAC”, the “relative integration efficiency (log2)” value was -3.19 ± 0.38.

On to “ACATTTGTTGATACTACCATTTAATGATAATAACACCCATAAAATGATAATTATCACACCCAATTTAACTATAACGCTCTGATCATAGTCAGACCAACATTGCTACGACCCGTATTCGCACCGACAC”, for which the “relative integration efficiency (log2)” value worked out at 1.8 ± 0.17.

With “ACATTTGTTGATACAACCATAAGTTGATATTTTCAACCATAAGTTGATATTTTTCACAACCATAAGTTGATATTTTCTCTGATCATAGTCAGACCAACATTGCTACGACCCGTATTCGCACCGACAC”, the “relative integration efficiency (log2)” value was -0.207 ± 0.25.

Consider “ACATTTGTTGATACAACCATAAAGTGATATTTACACCCATAAATTGATAATTATCACAACCATAAAATGATAATTACTCTGATCATAGTCAGACCAACATTGCTACGACCCGTATTCGCACCGACAC”, for which the “relative integration efficiency (log2)” value was -0.112 ± 0.54.

For “ACATTTGTTGATACAACGTTAAAATGATAATTACACCCATAAATTGATAATTATCACACCCATAAATTGATATTGCCTCTGATCATAGTCAGACCAACATTGCTACGACCCGTATTCGCACCGACAC”, the “relative integration efficiency (log2)” value is -1.02 ± 0.3.

As for “ACATTTGGGTCTACAACCATAAAATGATAATTACACCCATAAATTGATAATTATCACACCCATAAATTGATATTGCCTCTGATCATAGTCAGACCAACATTGCTACGACCCGTATTCGCACCGACAC”, the “relative integration efficiency (log2)” value was -4.93 ± 0.96.

On to “ACATTTGTTGATACACCCATAAATTGATATTGCCAACCATAAGTTGATATTTTTCAGTGGGTATTTAACTATAACGCTCTGATCATAGTCAGACCAACATTGCTACGACCCGTATTCGCACCGACAC”, for which the “relative integration efficiency (log2)” value is 2.3 ± 0.092.

Regarding “ACATTTGTTGATACAACCATAAAGTGATATTTACACCCATAAATTGATATTGCTCACAACCATATATTGATATCTCCTCTGATCATAGTCAGACCAACATTGCTACGACCCGTATTCGCACCGACAC”, the “relative integration efficiency (log2)” value worked out at 0.671 ± 0.21.

Turning to “TATAATGTTGATACAACCATAAAATGATAATTACACCCATAAATTGATAATTATCACACCCATAAATTGATATTGCCTCTGATCATAGTCAGACCAACATTGCTACGACCCGTATTCGCACCGACAC”, the “relative integration efficiency (log2)” value was -0.134 ± 0.48.

“ACATTTGTTCATCCAACCATAAAATGATAATTACACCCATAAATGGATCATTATCACACCCAATTTAACTATAACGCTCTGATCATAGTCAGACCAACATTGCTACGACCCGTATTCGCACCGACAC”: the “relative integration efficiency (log2)” value was -1.01 ± 0.52.

For the sequence “ACATTTGTTGATACAACCATAAAGTGATATTTACAACCATAAAGTGATATTTATCACAACCATAAAGTGATATTTACTCTGATCATAGTCAGACCAACATTGCTACGACCCGTATTCGCACCGACAC”, the “relative integration efficiency (log2)” value was 0.061 ± 0.087.

“ACATTTGTTCATACAACCATAAAACGATAATTACACCCATAAATTCATCATTATCACACCCAATTTAACTATAACGCTCTGATCATAGTCAGACCAACATTGCTACGACCCGTATTCGCACCGACAC”: the “relative integration efficiency (log2)” value is -0.684 ± 0.17.

Regarding “ACATTTGTTGATACAACCATAAAATGATAATTACACCCATAAATTGATATATATCACACCCATAAATTGATATTGCCTCTGATCATAGTCAGACCAACATTGCTACGACCCGTATTCGCACCGACAC”, the “relative integration efficiency (log2)” value is 4.91e-05 ± 0.14.

Consider “ACATTTGTTGATACAACCATAAAATGATAATTACACCCATAAATTGATAATTATCACACCCATAAATTGATATTCTCTGATCATAGTCAGACCAACATTGCTACGACCCGTATTCGCACCGACACTG”, for which the “relative integration efficiency (log2)” value is -0.29 ± 0.067.

Regarding “ACATTTGTTGATACAACCATAAAAGGATCATTACCCCCATAAATTGATAATTATCACACCCAATTTAACTATAACGCTCTGATCATAGTCAGACCAACATTGCTACGACCCGTATTCGCACCGACAC”, the “relative integration efficiency (log2)” value came to 0.679 ± 0.16.

Take “ACATTTGTTGATAACCAACGCCCCGTCGCCGGCACAAACGCCCGGTCGCCGGCTCACACCCATAAATTGATATTGCCTCTGATCATAGTCAGACCAACATTGCTACGACCCGTATTCGCACCGACAC”: the “relative integration efficiency (log2)” value is below -10.

Regarding “ACATTTCTGGATACAACCATAAAATGATAATTACACCCATAAATGGATCATTATCACACCCAATTTAACTATAACGCTCTGATCATAGTCAGACCAACATTGCTACGACCCGTATTCGCACCGACAC”, the “relative integration efficiency (log2)” value is -0.629 ± 0.35.

In the case of “ACATTTGTCGATACAACCCTAAAATGATAATTACACCCATAAATTCATAATTATCACCCCCAATTTAACTATAACGCTCTGATCATAGTCAGACCAACATTGCTACGACCCGTATTCGCACCGACAC”, the “relative integration efficiency (log2)” value is -1.84 ± 0.085.

Regarding “ACATTTCTGGATACAACCATAAAATGATAATTACACCCATAAATTCATAATTATCACACCCAATTTAACTATAACGCTCTGATCATAGTCAGACCAACATTGCTACGACCCGTATTCGCACCGACAC”, the “relative integration efficiency (log2)” value was -0.65 ± 0.075.

On to “ACATTTGTTCATACAACCCTAAAATGATAATTACACCCATAAATTGATCATTATCACCCCCAATTTAACTATAACGCTCTGATCATAGTCAGACCAACATTGCTACGACCCGTATTCGCACCGACAC”, for which the “relative integration efficiency (log2)” value was -0.724 ± 0.35.

Take “ACATTTGTTGATACAACCATAAAATGATAATTACACCCATAAATTGATAATTATCACCAAACGCCCGGTCGCGGTAAGAGGATCATAGTCAGACCAACATTGCTACGACCCGTATTCGCACCGACAC”: the “relative integration efficiency (log2)” value was 2.47 ± 0.095.

These data come from the supplement of paper PMC10201428.
